The results in this text go back to patent US20150056133A1 (Boehringer Ingelheim, published 2015).

Broadly, the IC50 is the concentration that inhibits the measured activity by half. Read a low IC50 as higher potency.

For one test, the target named is T1, human CCR2 (human, UniProt P41597 1-374).
T1 construct: whole, on cells
In words: FACS binding on CHO cells expressing human CCR2, anti-cmyc detection. As to the method:
(§1) Specificity for the hCX3CR1 receptor was evaluated by performing a FACS binding experiment on CHO-K1 parental cells or CHO cells expressing human CCR2, human CCR5 or mouse CX3CR1. The VHHs were incubated with the respective cell lines for 30 minutes at 4° C. followed by three wash steps and subsequently incubated with the detection reagents. As detection, a mouse anti-cmyc antibody (Serotec, MCA2200) followed by a goat anti-mouse antibody coupled to PE (Jackson 115-116-071) was used, each incubation was for 30 minutes at 4° C. and was followed by three wash steps. For each cell line a quality control with receptor-specific antibody was included. In addition, the highest concentration of each VHH was also incubated with CHO cells expressing hCX3CR1 as a positive control. No binding to mouse CX3CR1, human CCR2 or human CCR5 could be observed.
(In flow cytometry, cells or beads pass a laser one at a time.)

The next test concerns the target T2, human CCR5 (human, UniProt P51681 1-352).
T2 construct: whole, on cells
In words: FACS binding on CHO cells expressing human CCR5, anti-cmyc detection. As for the experimental part:
as §1

Test [1] has as its target T3, human CX3CR1 (human, UniProt P49238 1-355).
T3 construct: Presented on BA/F3-hCX3CR1, CHO-hCX3CR1 or HEK 293-hCX3CR1 cells, depending on the assay; also called hCX3CR1
T3 sequence (looked up): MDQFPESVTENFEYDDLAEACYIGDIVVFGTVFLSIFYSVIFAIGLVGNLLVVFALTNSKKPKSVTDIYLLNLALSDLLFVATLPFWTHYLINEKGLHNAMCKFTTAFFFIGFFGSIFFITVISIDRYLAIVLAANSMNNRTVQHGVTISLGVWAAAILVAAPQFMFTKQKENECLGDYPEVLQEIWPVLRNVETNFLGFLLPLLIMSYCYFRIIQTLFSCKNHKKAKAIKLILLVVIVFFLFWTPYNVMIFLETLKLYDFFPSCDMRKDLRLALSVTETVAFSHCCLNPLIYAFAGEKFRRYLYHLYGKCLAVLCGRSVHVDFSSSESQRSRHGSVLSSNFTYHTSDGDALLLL
In words: competition FACS against labeled fractalkine, BA/F3-hCX3CR1 cells.

In the next test the target is T4, mouse CX3CR1 (mouse, UniProt Q9Z0D9 1-354).
T4 construct: whole, on cells
T4 sequence (looked up): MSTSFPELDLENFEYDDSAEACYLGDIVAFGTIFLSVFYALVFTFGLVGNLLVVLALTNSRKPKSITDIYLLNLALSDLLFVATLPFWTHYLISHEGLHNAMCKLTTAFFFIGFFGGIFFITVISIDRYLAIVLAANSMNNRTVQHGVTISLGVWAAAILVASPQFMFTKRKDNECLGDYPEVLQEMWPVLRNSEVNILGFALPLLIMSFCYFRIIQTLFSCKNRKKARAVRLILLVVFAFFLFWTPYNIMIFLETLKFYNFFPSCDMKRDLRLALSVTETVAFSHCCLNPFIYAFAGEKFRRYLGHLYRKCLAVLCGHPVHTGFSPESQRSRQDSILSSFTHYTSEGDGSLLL
As to the kind of experiment: FACS binding on CHO cells expressing mouse CX3CR1, anti-cmyc detection. As to the method:
as §1

The target of test [2] is T3, human CX3CR1. In words: competition FACS against labeled fractalkine, CHO-hCX3CR1 cells. As to the method:
Periplasmic extracts were screened in a human CX3CR1/human fractalkine FACS competition assay to assess the ability of the expressed VHHs to block the binding of the unique CX3CR1 ligand to the receptor. Human CX3CR1 was presented on CHO cells. As a detection reagent fractalkine (R&D Systems, Minneapolis, Minn., USA) labeled with Alexa Fluor 647 (A647-Fractalkine) at a degree of labeling of 1 was used. In brief, 50 μl of periplasmic extract was added to 6 nM labeled fractalkine (50 μl) and 2E5 CHO-hCX3CR1 cells. After one hour incubation at 4° C., cells were washed three times before analysis on a FACS Array (Becton Dickinson). First a gate was set on the intact cells as determined from the scatter profile. Next, dead cells were gated out by their fluorescence profile from the PI stain (Sigma, St Louis, US). The fluorescence profile from the Alexa Fluor 647 label was determined for each sample and used for the calculation of blocking capacity. As controls, conditions were taken along where there was no VHH present in the periplasmic extract or a known irrelevant VHH and samples were included with excess cold fractalkine. For each sample the percentage block was determined using the control samples to determine the assay window. […]

The target in test [3] is T3, human CX3CR1. As to the kind of experiment: competition FACS against labeled fractalkine, HEK 293-hCX3CR1 cells.

T2 sequence (P51681 whole entry): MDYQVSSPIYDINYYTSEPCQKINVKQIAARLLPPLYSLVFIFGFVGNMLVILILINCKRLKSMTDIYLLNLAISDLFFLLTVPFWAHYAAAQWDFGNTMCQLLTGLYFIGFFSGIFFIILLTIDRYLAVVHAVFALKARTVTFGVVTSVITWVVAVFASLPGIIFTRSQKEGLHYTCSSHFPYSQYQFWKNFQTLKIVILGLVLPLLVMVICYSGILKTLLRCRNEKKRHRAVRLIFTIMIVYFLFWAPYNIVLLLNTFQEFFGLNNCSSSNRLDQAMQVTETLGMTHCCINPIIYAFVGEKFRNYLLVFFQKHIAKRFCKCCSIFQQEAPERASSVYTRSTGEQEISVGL
T1 sequence (P41597 whole entry): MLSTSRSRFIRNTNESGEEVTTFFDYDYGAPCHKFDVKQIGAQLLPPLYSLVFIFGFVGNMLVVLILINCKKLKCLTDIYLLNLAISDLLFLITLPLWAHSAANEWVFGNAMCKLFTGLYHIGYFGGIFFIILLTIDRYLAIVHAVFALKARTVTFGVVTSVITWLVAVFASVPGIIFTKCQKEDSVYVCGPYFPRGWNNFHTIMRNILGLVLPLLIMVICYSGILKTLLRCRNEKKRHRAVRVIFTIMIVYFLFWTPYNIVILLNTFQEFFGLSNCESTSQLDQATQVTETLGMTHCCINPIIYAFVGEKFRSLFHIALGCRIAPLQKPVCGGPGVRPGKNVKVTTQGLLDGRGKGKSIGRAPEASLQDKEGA

B1: CX3CR1BII315 (VHH)
VHH: EVQLVESGGGLVQAGGSLRLSCVASGRTFSSYAMGWFRQAPGKERAFVAGISGSASRKYYADSVKGRFTVSRDNARNTVYLQMNSLKPEDTAVYYCAASNSYPKVQFDYYGQGTQVTVSS
notes: Expressed in E. coli TG1 as c-myc, His6-tagged protein
Regarding B1, the binding result with human CCR2, in the test with human CCR5 and in the test with mouse CX3CR1 was “no binding” in each case. In addition, the concentration for half-maximal inhibition (IC50) with human CX3CR1 [1] is 8.1 nM.

B2: CX3CR1BII317 (VHH)
chain: EVQLVESGGGLVQAGGSLRLSCVASGRTFSSYAMGWFRQAPGKERAFVAGISGSASRKYYADSVKGRFTVSRDNARNTVYLQMNSLKPEDTAVYYCAASNSYPKVQFDYYGQGTLVTVSSGGGGSGGGGSGGGGSGGGGSGGGGSGGGGSGGGGSEVQLVESGGGLVQAGGSLRLSCVASGRTFSSYAMGWFRQAPGKERAFVAGISGSASRKYYADSVKGRFTVSRDNARNTVYLQMNSLKPEDTAVYYCAASNSYPKVQFDYYGQGTLVTVSSAAAEQKLISEEDLNGAAHHHHHH
notes: Bivalent VHH (single polypeptide chain)
Regarding B2, the IC50 with human CX3CR1 [2] is 3.4 nM. In addition, the binding result with human CCR2, with human CCR5 and with mouse CX3CR1 was “no binding” each time.

B3: CX3CR1BII318 (VHH)
chain: EVQLVESGGGSVQAGESLRLSCAASGSIFSSNAMAWYRQAPGKRRDLVAAINSVGVTKYADSVKGRFTISRDNAKNTVYLQMNSLKPEDTAVYYCTSDPRRGWDTRYWGQGTQVTVSSGGGGSGGGGSGGGGSGGGGSGGGGSGGGGSGGGGSEVQLVESGGGSVQAGESLRLSCAASGSIFSSNAMAWYRQAPGKRRDLVAAINSVGVTKYADSVKGRFTISRDNAKNTVYLQMNSLKPEDTAVYYCTSDPRRGWDTRYWGQGTQVTVSSAAAEQKLISEEDLNGAAHHHHHH
notes: as for B2
As to B3, the binding result with human CCR2, with human CCR5 and in the test with mouse CX3CR1 was “no binding” throughout. In addition, the “% Block” value with human CX3CR1 [3] turned out to be 102%. The same molecule showed an IC50 with human CX3CR1 [3] of 0.3 nM.

B4: CX3CR1BII18E06 (VHH)
VHH: KVQLVESGGGLVQPGGSLRLSCATSGTIFSNNAMGWYRQAPGKKRDLVASISSSGSTNYADSVKGRFTVSRDNDKNTGYLQMNSLKPEDTGVYYCTLDARRGWNTAYWGQGAQVTVSS
notes: as for B1
B4: the binding result in the test with human CCR2, with human CCR5 and in the test with mouse CX3CR1 was “no binding” throughout. This molecule registered a half-inhibitory concentration (IC50) in the test with human CX3CR1 [1] of 2.8 nM.

B5: CX3CR1BII316 (VHH)
VHH: EVQLVESGGGSVQAGESLRLSCAASGSIFSSNAMAWYRQAPPGKQRDLVALINSVGITKYADSVKGRFTISSDNAKNTVYLEMNSLKPEDTAVYYCTSDGRRGWDTRYWGQGTQVTVSS
notes: as for B1
Take B5: the binding result with human CCR2, in the test with human CCR5 and in the test with mouse CX3CR1 was “no binding” throughout. In addition, the “% Block” value with human CX3CR1 [3] was 94%. Besides, in the test with human CX3CR1 [3], the IC50 stood at 5.3 nM.

B6: CX3CR1BII66B02 (VHH)
VHH: EVQLVESGGGSVQAGESLRLSCAASGSIFSSNAMAWYRQAPGKRRDLVAAINSVGVTKYADSVKGRFTISRDNAKNTVYLQMNSLKPEDTAVYYCTSDPRRGWDTRYWGQGTQVTVSS
notes: as for B1
In the case of B6, the binding result with human CCR2, with human CCR5 and with mouse CX3CR1 was “no binding” in each case. For the same molecule, in the test with human CX3CR1 [3], the “% Block” value amounted to 102%. Further, the concentration for half-maximal inhibition (IC50) in the test with human CX3CR1 [3] turned out to be 2.5 nM.
